Laboratory results taken from the supplement of paper PMC9170038.

System: K4 kissing-loop RNA reporter
Test: apparent KD of K4 kissing-loop reporter; higher = weaker reporter binding
Conditions: Eterna round: R107
Procedure: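 RNA-MaP round R107: designed RNA switches with theophylline, tryptophan, arginine or FMN aptamers are transcribed on-chip within common flanks. They are titrated with a labelled K4 kissing-loop RNA reporter in RNA-MaP buffer (100 mM Tris pH 7.5, 80 mM KCl, 4 mM MgCl2), without ligand or with the indicated ligand. Median apparent KD per design.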

[1] = input ligand: theophylline 20 uM
[2] = input ligand: tryptophan 2.4 mM
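Note: bound reporter read as fluorescence of individual clusters on recovered sequencing chips by microscopy, with normalized cluster intensities fitted with a binding model.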

Sequence | apparent KD of K4 kissing-loop reporter (input ligand: FMN 200 uM) | apparent KD of K4 kissing-loop reporter (input ligand: arginine 13.2 mM) | apparent KD of K4 kissing-loop reporter (input ligand: none) | apparent KD of K4 kissing-loop reporter [1] | apparent KD of K4 kissing-loop reporter [2]
CGCGCGCGUUUGAGAGGGUGCGCGCGAAGUGAGGAUAUUUAGGGAGAAAGAAGGCACUAUAAAAUAUAGUGAUGUUAUAUAAGGG [SSFMNA.G] | 431 nM | 114 nM | 382 nM | 187 nM | 344 nM
CGCGCGGGUUGAGAGGUUCGCGCGAAUGAUACCAGUAUAUAAGAAUACCCUUGGCAGCAUAAGAAAGAUAUAGUGAUGUUGUAUA [SSTheophA.G] | 408 nM | 211 nM | 262 nM | 355 nM | 262 nM
CGCGCGUGAGGACUUGCCCUUCAUGGAGAUACCAGCCAGUAUGCGGGCCCUUGGCAGCUCGAGUGAUGUUCGAGUUUAAGGCAAA [Riesla] | 130 nM | 113 nM | 115 nM | 114 nM | 108 nM
CGCGGCCCGCCGGAUACCAGUGACCCGCGGGAAACCGCGGGCCCAGAGUGAUGUUCGGGACACCCUUGGCAGCCGCCUGGGCGUG [#2 Same State - Theophylline B Attempt #1 (HarryS)] | 567 nM | 325 nM | 620 nM | 1000 nM | 424 nM
CGGAUGUAGUGAUGUUAUAUUAGAUGUAGACGAGGACCGGUACGGCCGCCACUCGUGACGGCUGCUAGCGCGUUGCGAGGUUUGC [ExTryptoA.Cn] | 716 nM | 488 nM | 758 nM | 518 nM | 543 nM
CGUGUAAUGUGGAGAUUUGAAAAGGCGCAUCGAGGACCGGUACGGCCGCCACUCGCUACGAGCUAGUGAUGUUGGCUCGUUCGGA [theeternabot_sameState_KL_Trp_A_23] | 238 nM | 209 nM | 210 nM | 252 nM | 194 nM
CGUUUAUAGCAGGAUACCAGUACCCAUUAAGUACGUUAAUAGUAGAGUGAUGUUCUAAAGUACCCUUGGCAGCUUCCCGUGACCC [ExTheophylB.X] | 103 nM | 164 nM | 124 nM | 176 nM | 94.1 nM
CGUUUAUAGCAGGAUACCAGUACCCAUUAUGUACGUUAAUAGUAGAGUGAUGUUCUAAAGUACCCUUGGCAGCUUCCCGUGACCC [ExTheophylB.Y] | 119 nM | 183 nM | 140 nM | 176 nM | 94.7 nM
CUAAGGGAAGCAGGAUAUCGGUAUUAGUGUGUUAAAUAAACACUCGGGUAGUGAUGUUGCCCGUGGCGAGAAGGGCUACCAUUGG [Laace] | 33.6 nM | 44.8 nM | 48.7 nM | 41.4 nM | 47.3 nM
CUAUAAGUGCCGAGUGAUGUUCGGCCAAUACGAGGACCGGUACGGCCGCCACUCGGUCAGUCGGUGCCCACCGGGCAUGGCUGAC [Ortima] | 186 nM | 237 nM | 205 nM | 213 nM | 113 nM
CUAUAGACCCUUCGGAUAGUGAUGUUGUCACGAGGACCGGUACGGCCGCCACUCGCUGCCACCAUACCGCUUCACGGAACGAGCA [theeternabot_exclusion_KL_Trp_A_7] | 483 nM | 429 nM | 503 nM | 599 nM | 169 nM
CUAUGAGUGAUGUUCGUAGGUUGGGCUUGGCAGGAUAUGGGAUCUUCCAGAAGGGCCGAUUCCGGCGAGUGAUGUUCGUUGGUCU [Exclusion FMN A GF30] | 41.7 nM | 42.1 nM | 50.1 nM | 43.2 nM | 43.9 nM
CUAUGGAAACAUAGUAGUCGGGAAACCGAUACCAGUAUGGAAACAUACCCUUGGCAGCGGAAUGAUUAAACGGAGUGAUGUUCCG [Theophylline A K4 18] | 279 nM | 276 nM | 292 nM | 223 nM | 250 nM
CUAUUUCGCGUGGAUACCAGCGGUCGUAAAAUGUCAGUGAUGUUGAAGAGGAAAAGAGCUCGCCCUUGGCAGCCAUUCCGCACUA [theeternabot_sameState_KL_Theo_B_34] | 591 nM | 363 nM | 568 nM | 446 nM | 399 nM
CUCGUGGGUUUGAGAGGGCUUGUGGGAAGUGAGGAUAUUUAGGGAGGGAGAAGGUACUAUAGAAUAUAGUGAUGUUAUAUAUGGG [SSFMNA.U] | 264 nM | 138 nM | 185 nM | 111 nM | 147 nM
